The labels stand for the following.
B1: murine m1B7 antibody (antibody, V domains shown)
VH: QVQLQQPGSELVRPGASVKLSCKASGYKFTSYWMHWVKQRPGQGLEWIGNIFPGSGSTNYDEKFNSKATLTVDTSSNTAYMQLSSLTSEDSAVYYCTRWLSGAYFDYWGQGTTLTVSS
VL: QIVLTQSPALMSASPGEKVTMTCSASSSVSFMYWYQQKPRSSPKPWIYLTSNLPSGVPARFSGSGSGTSYSLTISSMEAEDAATYYCQQWSSHPPTFGSGTKLEIK
notes: also called parental murine 1B7 antibody
B2: chimeric 1B7 antibody (antibody, V domains shown)
VH: QVQLQQPGSELVRPGASVKLSCKASGYKFTSYWMHWVKQRPGQGLEWIGNIFPGSGSTNYDEKFNSKATLTVDTSSNTAYMQLSSLTSEDSAVYYCTRWLSGAYFDYWGQGTTLTVSS
VL: QIVLTQSPALMSASPGEKVTMTCSASSSVSFMYWYQQKPRSSPKPWIYLTSNLPSGVPARFSGSGSGTSYSLTISSMEAEDAATYYCQQWSSHPPTFGSGTKLEIK
notes: also called ch1B7
B3: murine m11E6 antibody (antibody, V domains shown)
VH: EVKVVESGGGLVQPGGSLRLSCTTSGFTFTDYYVSWVRQPPGKALEWLGFIRNKVNGYTTEFSSSVKGRFTISRDNSQSILYLQMNTLRVEDSATYYCARVSYYGRGWYFDYWGQGTTLTVSS
VL: DIVMTQSTSSLSASLGDRVTISCRASQDIDNYLSWFQQKPDGTVKLLIYYTSRLHSGVPSRFSGSGSGTDYSLTISSLDQEDIATYFCQQGNTFPWTFGGGTKLEIK
notes: also called parental murine 11E6 antibody

This test concerns the target T1, pertussis toxin protein (Bordetella pertussis, UniProt P04977 35-269; P04978 28-226; P04979 29-227; P0A3R5 43-152; P04981 35-133).
T1 construct: also called PTx; PT
The experiment in a line: BIAcore. In general terms: In SPR one partner is held on a chip, and binding of the other changes the refractive index at the surface.
In turn, B1 had a kon of 170000 M⁻¹ s⁻¹.

B2 showed a kon of 150000 M⁻¹ s⁻¹.

Take B3: the kon is 80000 M⁻¹ s⁻¹.

In general, kon refers to the second-order rate constant of association. Low readings indicate slower complex formation, high ones faster complex formation.

(Values after US20170066816A1 (University of Texas, published 2017).)
